Source: US20060019915A1, “Method to modulate the immune system with a novel guanine nucleotide exchange factor” (priority 2004, published 2006)

Experiments:
Rac1 = target: T1, Rac1 (Homo sapiens, UniProt P63000); experiment: In vitro GDP release assay (filter-binding) on Rac1; format: biochemical; details: for dissociation of [3H]GDP from Rac1 (GEF activity): purified GST-IBP fusion protein, 4 pmol, [3H]GDP-loaded GST-Rac1
T1 construct: purchased Calbiochem-Novabiochem; host or cells: bacteria
Method: A-C, stimulation of GDP dissociation from Rho GTPases by wild-type or mutant IBP proteins. [^3H]GDP-loaded Rac1 (A), Cdc42 (B), or RhoA (C) was incubated with GST alone or with either wild-type or mutant GST-IBP fusion proteins, as indicated. The exchange reactions were stopped at the indicated time points, and the amount of [^3H]GDP remaining bound to the GTPases was then measured by filtering the quenched reaction samples over nitrocellulose membranes followed by scintillation counting of the membrane-bound radioactivity. The percentage of [^3H]GDP remaining bound at each time point was evaluated relative to the amount of radioactivity remaining at time 0 of the respective reaction, which was set to 100% in each experiment. The results shown are representative of at least three independent assays. D, regulation of IBP GEF activity by Lck and PI(3,4,5)P3. [^3H]GDP-loaded Rac1 was incubated with Lck-phosphorylated wild-type HA-IBP (IBP+Lck) in the presence or absence of PI(3,4,5)P3 (1 μM) for 0 or 40 min. Reactions without IBP (Lck and Lck^+ PI(3,4,5)P3) were simultaneously carried out as control. The exchange reactions were then stopped, and the amount of [^3H]GDP remaining bound to Rac1 was measured by filter-binding method as described for A-C. The percentage of [^3H]GDP remaining bound after incubation for 40 min was evaluated relative to the amount of radioactivity remaining at time 0 of the respective reaction, which was set to 100% in each experiment. The results shown are representative of at least three independent assays.
The in vitro GDP release assays were carried out by filter-binding method as described previously (28-31). To prepare [3H]GDP-loaded GTPases, 40 pmol of bacterially expressed and purified GST-Rac1, GST-Cdc42, or His-RhoA (Calbiochem-Novabiochem) was incubated with 1 μM [3H]GDP in 100 μl of a binding buffer (10 mM HEPES, pH 7.5, 100 mM NaCl, 5 mM MgCl2, 1 mM EGTA, 1 mM dithiothreitol, 50 μg/ml bovine serum albumin) for 60 min at 30° C. The nucleotide exchange reaction was initiated by adding 100 μM nonradioactive GTP and 4 pmol of purified GST alone or GST-IBP fusion proteins (or when appropriate, 4 pmol of purified wild-type HA-IBP either non-phosphorylated or in vitro phosphorylated by purified Lck and cold ATP) to the [3H]GDP-loaded GTPase and then equally splitting and incubating the reaction mixture for the indicated time periods at room temperature. […] The amount of [3H]GDP remaining bound to the GTPases was determined by filtering the quenched reaction samples over nitrocellulose membranes followed by extensive washing of the filters and then quantification of the membrane-bound radioactivity by scintillation counting.

Cdc42 = target: T2, Cdc42 (Homo sapiens, UniProt P60953); experiment: In vitro GDP release assay (filter-binding) on Cdc42; format: biochemical; details: purified GST-IBP fusion protein, 4 pmol; [3H]GDP-loaded GST-Cdc42
T2 construct: purchased Calbiochem-Novabiochem; host or cells: bacteria
Method: A-C, stimulation of GDP dissociation from Rho GTPases by wild-type or mutant IBP proteins. [^3H]GDP-loaded Rac1 (A), Cdc42 (B), or RhoA (C) was incubated with GST alone or with either wild-type or mutant GST-IBP fusion proteins, as indicated. The exchange reactions were stopped at the indicated time points, and the amount of [^3H]GDP remaining bound to the GTPases was then measured by filtering the quenched reaction samples over nitrocellulose membranes followed by scintillation counting of the membrane-bound radioactivity. The percentage of [^3H]GDP remaining bound at each time point was evaluated relative to the amount of radioactivity remaining at time 0 of the respective reaction, which was set to 100% in each experiment. The results shown are representative of at least three independent assays. D, regulation of IBP GEF activity by Lck and PI(3,4,5)P3. [^3H]GDP-loaded Rac1 was incubated with Lck-phosphorylated wild-type HA-IBP (IBP+Lck) in the presence or absence of PI(3,4,5)P3 (1 μM) for 0 or 40 min. […] The exchange reactions were then stopped, and the amount of [^3H]GDP remaining bound to Rac1 was measured by filter-binding method as described for A-C. The percentage of [^3H]GDP remaining bound after incubation for 40 min was evaluated relative to the amount of radioactivity remaining at time 0 of the respective reaction, which was set to 100% in each experiment. […]

T2 sequence (P60953 whole entry, species assumed, the tested form may be a part): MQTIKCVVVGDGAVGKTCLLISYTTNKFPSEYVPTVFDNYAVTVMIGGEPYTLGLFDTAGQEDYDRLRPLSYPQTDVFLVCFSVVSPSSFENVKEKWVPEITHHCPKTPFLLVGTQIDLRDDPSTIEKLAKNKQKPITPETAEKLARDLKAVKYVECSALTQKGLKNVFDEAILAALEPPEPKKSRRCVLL

dissociation of [3H]GDP from Rac1 (GEF activity) (Rac1) | dissociation of [3H]GDP from Cdc42 (GEF activity) (Cdc42) | ability of wild-type IBP to promote GDP-GTP exchange on Rac1 after phosphorylation by Lck (Rac1; purified HA-IBP phosphorylated in vitro by purified Lck, 40 min) | GEF activity of Lck-phosphorylated wild-type IBP on Rac1 on addition of PI(3,4,5)P3 (Rac1; PI(3,4,5)P3 1 μM, 40 min) | Molecule
did not stimulate the dissociation | did not stimulate the dissociation | – | – | wild-type IBP: purified recombinant full-length human IBP (IRF-4 Binding Protein), GST fusion or HA-tagged
– | – | enhanced ability | – | Lck: purified Lck kinase, Src family protein tyrosine kinase, used to phosphorylate IBP in vitro
– | – | – | stimulated | phosphatidylinositol 3,4,5-triphosphate [PI(3,4,5)P3, reference compound]
stimulated rapid GDP dissociation | stimulated rapid GDP dissociation | – | – | IBP 313-631: IBP mutant containing the putative DH domain alone, GST fusion protein (protein, UniProt Q9H4E7 313-631, looked up, fragment, GST fusion, IBP mutant containing the putative DH domain alone, GST fusion protein) LQAEGKTSLHKDLKQKRREQREQRERRRAAKEEELLRLQQLQEEKERKLQELELLQEAQRQAERLLQEEEERRRSQHRELQQALEGQLREAEQARASMQAEMELKEEEAARQRQRIKELEEMQQRLQEALQLEVKARRDEESVRIAQTRLLEEEEEKLKQLMQLKEEQERYIERAQQEKEELQQEMAQQSRSLQQAQQQLEEVRQNRQRADEDVEAAQRKLRQASTNVKHWNVQMNRLMHPIEPGDKRPVTSSSFSGFQPPLLAHRDSSLKRLTRWGSQGNRTPSPNSNEQQKSLNGGDEAPAPASTPQEDKLDPAPEN
